Measured values as given in patent publication US20160362487A1 (Regeneron, published 2016).

T1: cynomolgus monkey IL-33 expressed with a C-terminal hexahistidine tag (cynomolgus monkey)
T1 construct: also called MfIL-33-6His; Mf-IL-33-6His
T1 chain: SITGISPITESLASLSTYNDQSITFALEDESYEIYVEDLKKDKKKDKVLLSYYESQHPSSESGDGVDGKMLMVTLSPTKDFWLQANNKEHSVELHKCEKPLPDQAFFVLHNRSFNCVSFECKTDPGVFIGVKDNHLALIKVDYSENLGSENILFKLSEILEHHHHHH

T2: human IL-33 (R&D Systems, #3625-IL-010/CF) (human, UniProt O95760 112-270)
T2 construct: Commercial recombinant protein; also called hIL-33; interleukin-33
T2 sequence (looked up): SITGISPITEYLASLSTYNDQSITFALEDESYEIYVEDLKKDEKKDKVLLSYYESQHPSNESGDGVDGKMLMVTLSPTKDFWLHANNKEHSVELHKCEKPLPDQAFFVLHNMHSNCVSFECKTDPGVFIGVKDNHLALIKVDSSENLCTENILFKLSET


Experiments:
[1] = target: T1, cynomolgus monkey IL-33 expressed with …; experiment: BLI; captured MfIL-33-6His, mAb-1 step with Isotype control
Procedure: Binding competition between a panel of different anti-IL-33 monoclonal antibodies was determined using a real time, label-free bio-layer interferometry assay on an Octet® HTX biosensor (ForteBio, A Division of Pall Life Sciences). The experiment was performed at 25° C. using a buffer of 0.01M HEPES pH7.4, 0.15M NaCl, 3 mM EDTA, 0.05% v/v Surfactant Tween-20, and 0.1 mg/ml BSA (HBS-ET kinetics buffer) with the plate shaking at a speed of 1000 rpm. […] The antigen-captured biosensors were then saturated with a first anti-IL-33 monoclonal antibody (subsequently referred to as mAb-1) by immersion into wells containing 50 μg/mL solution of mAb-1 for 5 minutes. The biosensors were then dipped into wells containing a 50 μg/mL solution of a second anti-IL-33 monoclonal antibody (subsequently referred to as mAb-2) for 4 minutes. The biosensors were washed in HBS-ET kinetics buffer in between every step of the experiment. The real-time binding response was monitored during the experiment, and the maximum binding response for each binding step was recorded. The response of mAb-2 binding to MfIL-33-6His pre-complexed with mAb-1 was measured, and competitive/non-competitive behavior of different anti-IL-33 monoclonal antibodies with respect to each other was determined.

[2] = target: T2, human IL-33 (R&D Systems, …); experiment: BLI; hIL-33 pre-mixed with mAb-2 H1M9565N
Procedure: (§1) Binding competition between a panel of different anti-IL-33 monoclonal antibodies was determined using a real time, label-free bio-layer interferometry assay on an Octet® HTX biosensor (ForteBio, A Division of Pall Life Sciences). The experiment was performed at 25° C. using a buffer of 0.01M HEPES pH7.4, 0.15M NaCl, 0.05% v/v Surfactant Tween-20, and 0.1 mg/ml BSA (HBS-ET kinetics buffer) with the plate shaking at a speed of 1000 rpm. To assess whether two antibodies were able to compete with one another for binding to human IL-33, a pre-mix assay format was used where 100 nM of human IL-33 (R&D Systems; #3625-IL-010/CF) was pre-mixed with 500 nM of different anti-IL-33 monoclonal antibodies (subsequently referred to as mAb-2) for at least 2 hours prior to running the binding competition assay. […] Following the capture step, unoccupied anti-mouse Fc polyclonal antibody and anti-human Fc polyclonal antibody on the Octet biosensors were saturated by submerging them for 4 minutes into wells containing 200 μg/mL of a non-specific monoclonal antibody with a mouse Fc or with a human Fc, respectively. Finally, the Octet biosensors were immersed for 4 minutes into wells containing the pre-mixed samples of 100 nM of human IL-33 and 500 nM of mAb-2. At the end of each cycle, the non-covalently captured anti-IL-33 antibodies along with the bound pre-complex of human IL-33 and mAb-2 were removed from the biosensors using three alternate 20 second immersions into 10 mM HCl followed by submerging into HBS-ET kinetics buffer. The biosensors were washed in HBS-ET kinetics buffer in between every step of the experiment. The real-time binding response was monitored during the binding events, and the binding response (in units of nm) at the end of every step was recorded.

[3] = target: T2, human IL-33 (R&D Systems, …); experiment: BLI; hIL-33 pre-mixed with mAb-2 Isotype control 2
Procedure: as §1

[4] = target: T1, cynomolgus monkey IL-33 expressed with …; experiment: competition ELISA, 150 pM MfIL-33-6His on coated hST2-hFc
Procedure: The ability of anti-IL-33 antibodies to block either human IL-33 (hIL-33) or cynomologus monkey IL-33 binding to the human ST2 receptor was measured using a competition sandwich ELISA. […] The antibody/IL-33 mixtures were incubated for 1 hour at room temperature before they were transferred to the hST2-hFc-coated microtiter plates. After incubating for 1 hour at room temperature, the wells were then washed, and plate-bound biotin-hIL-33 was detected with streptavidin conjugated with horse-radish peroxidase (HRP) (Thermo Scientific, Cat # N200), and plate-bound MfIL-33-6His was detected with a HRP conjugated anti-His monoclonal antibody (Qiagen, #34460). All samples were developed with a TMB solution (BD biosciences, #51-2607KC) to produce a colorimetric reaction and then quenched by acidification with 1M sulfuric acid before measuring absorbance at 450 nm on a Victor X5 plate reader. Data analysis was performed using a sigmoidal dose-response model within Prism™ software. […] Percent blockade was calculated as the ratio of the reduction in signal observed in the presence of antibody relative to the difference between the signal with IL-33 alone and background (signal from HRP-conjugated secondary antibody or streptavidin alone). The absorbance measured for the constant concentration of biotin-hIL-33 or MfIL-33-6His alone is defined as 0% blocking and the absorbance measured for no added IL-33 is defined as 100% blocking.

Binder | mAb-2 Binding to the Pre-complex of mAb-1 & MfIL-33-6xHis [1] [nm] | mAb-1 Binding to the Pre-complex of mAb-2 & hIL-33 [2] [nm] | mAb-1 Binding to the Pre-complex of mAb-2 & hIL-33 [3] [nm] | % Maximum blocking [4] [%] | IC50 [4] [nM]
H4H9672P (antibody, human IgG4, V domains shown, Human IgG4 Fc (H4H)) VH: EVQLVESGGGLVQPGGSLRLSCAASGFTLRSYVMYWVRQGPGKGLEGVSGISGSSGGTYYTDSVKGRFTISRDNSKNTLFLQMNSLRAEDTAVYFCARSVYSTTWYGGFQHWGQGTLVTVSS VL: DIQMTQSPSSVSVSVGDRVTITCRASQVISSWLAWYQLKPGKAPKLLIYAASSLQSGVPSRFSGSGSGTDFTLTISGLQPEDFAVYYCQQTNSFPLTFGGGTKVEIK | 0.25 | 0.52 | 0.08 | 48 | 5.5
H4H9667P (antibody, human IgG4, V domains shown, Human IgG4 Fc (H4H)) VH: EVQLVESGGGLVQPGGSLRLSCAASGFTFSTYSMHWVRQAPGKGLEYVSTINNNGDTTYYADSVKGRFTISRDNSKNTLYLQLGSLRPEDMAVYYCARQTYTSSWYGGFDSWGQGTLVTVSS VL: DIQMTQSPSSVSASVGDRVTITCRASQGITSWLAWYQQKPGKAPKLLIYAASNLQSGVPSRFSGSGSGTDFTLTITSLQPEDFATYYCQQANSLPFTFGPGTKVDIK | 0.26 | 0.48 | 0.12 | 72 | 4.1
H4H9676P (antibody, human IgG4, V domains shown, Human IgG4 Fc (H4H)) VH: EVQLVESGGGLVQPGGSLRLSCSASGFTFSSYAMNWVRQAPGKGLEWVTAISGSGGGTYYADSVKGRFTISRDNSKNSLFLQLNSLRAEDTAVYYCAKQTYTSSWYGGFDIWGQGTMVTVSS VL: DIQMTQSPSSVSASVGDRVTITCRASQGFSSWLAWYQQIPGKAPKLLIYAASRLQSGVPSRFRGSGSGTDFTLTISSLQPEDFATYYCQQANSFPLTFGGGTKVEIK | 0.25 | 0.45 | 0.1 | 57 | 3.2
H4H9671P (antibody, human IgG4, V domains shown, Human IgG4 Fc (H4H)) VH: EVQLVESGGGLVQPGGSLRLSCAASGFTLRSYFMTWVRQVPGKGLEGVSAISGISGGTYYTDSVKGRFTISRDNSKNTLFLQMNSLRAEDTAVYFCARTVYSSSYYGGFQHWGQGTLVTVSS VL: DIQMTQSPSSVSVSVGDRVTITCRASQGISSWLAWYQQKPGKAPKLLIYVASSLQSGVPSRFSGSGSGTDFTLTISSLQPEDFATYYCQQTNSFPLTFGGGTKVEIK | 0.26 | 0.57 | 0.07 | 62 | 0.58
H1M9559N (antibody, mouse IgG1, V domains shown, Human variable domains, mouse IgG1 Fc (H1M)) VH: QVQLVESGGGVVQPGRSLRLSCAASGFTFSSYGMHWVRQAPGKGLEWVAVIWYDGRNKYYTDSVKGRFTISRDNSKNTLYLQMDSLRAEDTAVYYCARERYISSYYGGFDPWGQGALVTVSS VL: DIQMTQSPSSVSASVGDRVTITCRASQGISSWLAWYQQKPGKAPKVLIYAASSLQSGVPSRFSGSGSGTDFTLTISSLQPEDFATYYCQQANSFPFTFGPGTKLDIK | 0.21 | 0.35 | 0.11 | 53 | 10

Continued by falling IC50 [4], values first:

mAb-2 Binding to the Pre-complex of mAb-1 & MfIL-33-6xHis [1] [nm] | mAb-1 Binding to the Pre-complex of mAb-2 & hIL-33 [2] [nm] | mAb-1 Binding to the Pre-complex of mAb-2 & hIL-33 [3] [nm] | % Maximum blocking [4] [%] | IC50 [4] [nM] | Binder
0.23 | 0.51 | 0.12 | 69 | 3.5 | H4H9670P (antibody, V domains shown, Human IgG4 Fc (H4H)) VH: EVQLVESGGGLVQPGGSLRLSCAASGFTLSSYAMSWVRQAPGKGLEWVSAISGSGGSTYYADSVKGRFTISRDNSKNSLYLQLNSLRAEDTAVYYCAKTLYTTSWYGGFQHWGQGTLVTVSS VL: DIQMTQSPSSVSASIGDRVTITCRASQGISSWLAWYQQKPGKVPKLLIYAASSLQSGFPSRFSGSGSGTDFTLTISSLQPEDFATYYCQQTHSFPWTVGQGTKVEIK
0.26 | 0.51 | 0.11 | 72 | 1.5 | H4H9675P (antibody, human IgG4, V domains shown, Human IgG4 Fc (H4H)) VH: EVQLVESGGNLEQPGGSLRLSCTASGFTFSRSAMNWVRRAPGKGLEWVSGISGSGGRTYYADSVKGRFTISRDNSKNTLYLQMNSLSAEDTAAYYCAKDSYTTSWYGGMDVWGHGTTVTVSS VL: DIQMTQSPSSVSASVGDRVTITCRASQGIFSWLAWYQQKPGKAPKLLIYAASSLQSGVPSRFSGSGSGTDFTLTISSLQPEDFAIYYCQQANSVPITFGQGTRLEIK
